Results published in patent CN110616192A.

Legend:
神经丝轻链(NEFL) (human) [1] = molecular target: 神经丝轻链(NEFL) (human) (UniProt P07196); assay: indirect ELISA, antigen coated at 5 μg/ml, antibody diluted 10^4-fold
神经丝轻链(NEFL) (human) [2] = molecular target: 神经丝轻链(NEFL) (human) (UniProt P07196); assay: indirect ELISA titre, serial two-fold dilution of purified antibody
神经丝轻链(NEFL) (human) [3] = molecular target: 神经丝轻链(NEFL) (human) (UniProt P07196); assay: calculated from the indirect ELISA titre

Sequence of UniProt P07196 (P07196 1-360 limits assumed): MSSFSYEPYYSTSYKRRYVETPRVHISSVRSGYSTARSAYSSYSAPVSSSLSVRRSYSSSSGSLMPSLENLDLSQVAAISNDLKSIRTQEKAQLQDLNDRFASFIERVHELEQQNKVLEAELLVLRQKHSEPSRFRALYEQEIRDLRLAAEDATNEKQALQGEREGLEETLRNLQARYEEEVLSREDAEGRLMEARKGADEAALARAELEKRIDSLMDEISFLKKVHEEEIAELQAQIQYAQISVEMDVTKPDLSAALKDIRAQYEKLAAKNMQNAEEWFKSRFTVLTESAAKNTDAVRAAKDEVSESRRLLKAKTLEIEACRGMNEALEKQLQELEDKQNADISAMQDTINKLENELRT

With 抗NEFL单克隆抗体OTI2F5 (antibody) the OD450 (神经丝轻链(NEFL) (human) [1]) was greater than 1.5 OD450 and the 抗体效价 (神经丝轻链(NEFL) (human) [2]) was 1.02e+06.

抗NEFL单克隆抗体OTI3G2 (antibody) showed an OD450 (神经丝轻链(NEFL) (human) [1]) greater than 1.5 OD450 and a 抗体效价 (神经丝轻链(NEFL) (human) [2]) of 512000.

抗NEFL单克隆抗体OTI11F8 (antibody) gave an OD450 (神经丝轻链(NEFL) (human) [1]) greater than 1.5 OD450 and a 抗体效价 (神经丝轻链(NEFL) (human) [2]) of 512000.

抗人神经丝轻链(NEFL)单克隆抗体OTI11F6 (antibody) gave a Ka (神经丝轻链(NEFL) (human) [3]) of 1.4e+09 M⁻¹, an OD450 (神经丝轻链(NEFL) (human) [1]) greater than 1.5 OD450 and a 抗体效价 (神经丝轻链(NEFL) (human) [2]) of 1.02e+06.
